In FireProtDB (doi:10.1016/0022-2836(92)90387-y):

Settings: Bacillus amyloliquefaciens; pH 6.3; 25 °C; Urea; Fluorescence; MES 50 mM; reversible: yes; whole UniProt chain shown

B1: Ribonuclease wild type, P00648 (protein)
chain: MMKMEGIALKKRLSWISVCLLVLVSAAGMLFSTAAKTETSSHKAHTEAQVINTFDGVADYLQTYHKLPDNYITKSEAQALGWVASKGNLADVAPGKSIGGDIFSNREGKLPGKSGRTWREADINYTSGFRNSDRILYSSDWLIYKTTDHYQTFTKIR
unfolding free energy: 8.83 kcal/mol
